In PMC3229523, “Identification of Lactoferricin B Intracellular Targets Using an Escherichia coli Proteome Chip” (PLoS ONE, 2011):
Ends that are not written are not given here.

Assays:
Experiment in all cases: fluorescence polarisation; 100 nM DyLight 549-labeled LfcinB as tracer; two-fold serial dilution of protein from 0.4 µM to 0.025 µM in PBS, 0.005% BSA, 0.01% Triton X-100; room temperature, 1 h; compared with BSA
Conditions in all cases: both partners purified
adenylate cyclase CyaA = target: T1, adenylate cyclase CyaA (E. coli K-12, UniProt P00936 1-848)
T1 construct: CyaA, adenylate cyclase, E. coli K-12
T1 sequence (looked up): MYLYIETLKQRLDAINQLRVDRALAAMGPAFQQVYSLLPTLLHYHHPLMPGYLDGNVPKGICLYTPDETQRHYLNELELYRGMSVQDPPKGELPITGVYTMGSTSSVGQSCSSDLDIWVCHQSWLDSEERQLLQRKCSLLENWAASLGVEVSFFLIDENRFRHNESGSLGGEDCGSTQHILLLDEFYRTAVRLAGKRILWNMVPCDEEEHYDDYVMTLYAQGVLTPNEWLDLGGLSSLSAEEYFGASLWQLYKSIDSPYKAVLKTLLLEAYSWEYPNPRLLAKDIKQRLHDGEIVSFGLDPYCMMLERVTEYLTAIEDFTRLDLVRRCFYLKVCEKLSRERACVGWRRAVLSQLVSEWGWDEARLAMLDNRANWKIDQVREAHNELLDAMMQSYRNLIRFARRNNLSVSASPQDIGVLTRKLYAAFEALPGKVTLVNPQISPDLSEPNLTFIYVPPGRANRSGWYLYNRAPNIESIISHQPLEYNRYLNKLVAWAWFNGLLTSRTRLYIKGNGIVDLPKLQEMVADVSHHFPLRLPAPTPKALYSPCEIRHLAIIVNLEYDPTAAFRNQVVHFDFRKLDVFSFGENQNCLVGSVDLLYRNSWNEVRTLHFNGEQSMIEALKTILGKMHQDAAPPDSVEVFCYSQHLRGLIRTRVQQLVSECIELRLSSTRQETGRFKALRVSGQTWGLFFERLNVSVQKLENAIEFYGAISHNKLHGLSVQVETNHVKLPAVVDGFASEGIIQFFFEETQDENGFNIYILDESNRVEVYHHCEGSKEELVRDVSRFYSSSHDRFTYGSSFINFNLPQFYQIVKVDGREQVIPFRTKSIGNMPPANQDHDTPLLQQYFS

HyaF = target: T2, HyaF (E. coli K-12, UniProt P19932 1-285)
T2 construct: HyaF, E. coli K-12
T2 sequence (looked up): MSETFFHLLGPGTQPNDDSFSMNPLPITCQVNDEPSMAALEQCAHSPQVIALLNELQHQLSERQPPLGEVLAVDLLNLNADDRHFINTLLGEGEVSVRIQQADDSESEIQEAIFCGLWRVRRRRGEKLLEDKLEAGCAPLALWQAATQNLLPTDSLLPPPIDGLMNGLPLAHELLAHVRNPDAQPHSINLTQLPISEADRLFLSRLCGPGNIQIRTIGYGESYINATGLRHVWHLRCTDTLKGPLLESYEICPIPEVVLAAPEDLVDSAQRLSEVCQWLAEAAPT

MetL = target: T3, MetL (E. coli K-12, UniProt P00562 1-810)
T3 construct: MetL, E. coli K-12
T3 sequence (looked up): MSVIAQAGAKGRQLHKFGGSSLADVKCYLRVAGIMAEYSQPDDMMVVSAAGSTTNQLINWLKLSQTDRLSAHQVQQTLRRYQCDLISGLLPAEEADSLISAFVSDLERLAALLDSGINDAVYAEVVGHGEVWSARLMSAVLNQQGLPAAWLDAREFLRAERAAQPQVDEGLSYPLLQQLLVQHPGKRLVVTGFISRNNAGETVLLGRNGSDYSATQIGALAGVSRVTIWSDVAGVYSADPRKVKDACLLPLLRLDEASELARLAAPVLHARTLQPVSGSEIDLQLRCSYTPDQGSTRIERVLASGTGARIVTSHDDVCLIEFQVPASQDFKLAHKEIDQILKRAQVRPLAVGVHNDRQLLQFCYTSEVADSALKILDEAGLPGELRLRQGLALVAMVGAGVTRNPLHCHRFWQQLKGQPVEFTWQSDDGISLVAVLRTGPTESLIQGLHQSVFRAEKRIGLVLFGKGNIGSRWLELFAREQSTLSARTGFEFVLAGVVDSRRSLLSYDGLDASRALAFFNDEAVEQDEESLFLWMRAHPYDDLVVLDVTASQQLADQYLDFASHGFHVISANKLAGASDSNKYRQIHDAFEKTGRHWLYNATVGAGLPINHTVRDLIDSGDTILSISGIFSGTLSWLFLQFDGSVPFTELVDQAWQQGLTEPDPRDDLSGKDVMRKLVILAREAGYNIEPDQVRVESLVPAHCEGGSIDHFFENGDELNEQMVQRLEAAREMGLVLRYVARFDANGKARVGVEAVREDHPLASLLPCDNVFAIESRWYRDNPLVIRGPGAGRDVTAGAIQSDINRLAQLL

[1] = target: T4, ribonucleoside-diphosphate reductase 2, β subunit (E. coli K-12, UniProt P37146 1-319)
T4 construct: NrdF, ribonucleoside-diphosphate reductase 2, β subunit, E. coli K-12; no measurement of the oligomer here; also called NrdF
T4 sequence (P37146 whole entry): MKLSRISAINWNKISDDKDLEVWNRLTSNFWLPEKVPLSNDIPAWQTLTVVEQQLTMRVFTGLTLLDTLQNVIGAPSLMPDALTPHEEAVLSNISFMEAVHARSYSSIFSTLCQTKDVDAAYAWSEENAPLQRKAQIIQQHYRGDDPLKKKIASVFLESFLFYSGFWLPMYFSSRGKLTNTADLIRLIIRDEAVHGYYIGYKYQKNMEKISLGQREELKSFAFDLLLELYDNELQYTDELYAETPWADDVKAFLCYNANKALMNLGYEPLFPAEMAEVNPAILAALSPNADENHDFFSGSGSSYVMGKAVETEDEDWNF

Measured: binding result

B1: DyLight 549-labeled Lactoferricin B (peptide, UniProt P24627 36-60, looked up)
peptide: FKCRRWQWRMKKLGAPSITCVRRAF
modifications: ends and bridges not checked; also: DyLight 549 label, sites not given here
notes: lactoferricin B (LfcinB), cationic antimicrobial peptide of 25 amino acids; also called fluorescence-labeled LfcinB; LfcinB; source: bought: Kelowna Inc; labelled with DyLight 549-NHS ester, desalted
binds: adenylate cyclase CyaA | HyaF | MetL | [1]
